According to the DeepSol protein solubility set:

Assay: soluble on expression in E. coli; label from the status in PepcDB or PDB records

Sequence | soluble on expression in E. coli
MSLSVSLVYRKARPDDWKGILELYNSLSDDDLYLRFFTFHKLTEEEARKIADTKEHYTVIAEINGKIVGEASIYFDGEFAVVVHPDYRRLGIGTELVKRLIEFAKKNGIKKVRFYTLPENYPMIKIGKKLGFKIIEREDEVYAYLDLTNENVILEKT | soluble
MGSDKIHHHHHHMDIYRHAQVMMNAAQAAHDLVDHLSIQPRGVVKVSVPVDIAQNLLPKILPAFLKKYPEIRLQLIVSNRRVDVINEGIDIALRVRSKLDDDPSLVLRQFALIEQSLFASQAYLNEFGNIKSPDELSDHRILSLSEEHLDQQFILHGPDNQLKKVKVSPTIMGTNIYMLAQLASQNCGIALLPDTAAEDFVKSGQLVQILPDWKAAHGIFHAVYPSRRGLLPAVRVFIDYLVEHLSEHP | not soluble
MAHHHHHHMFAIRCPASMLWHPSVHHSLLLLRALEQPHTLLLDTHTASRGRLSVPLLSECAREVRIQTPPGHHEFDSPAGASTERSVLLYRAEDLLHIVNRPLSAGHDLGAACPTQSGVFASLLEYLEASTVSSHVISAIDALLVSLNTGDMETMRQTHACLVELIERLEASITDESLSEAHRTDQKEPLSTWPLFCTLQFLIEEGGMLTSAFPRTNKAYTRLCHSSKAVALHRRLVQRTVEQLLDVGSSANADVSQGARVEMNYPAKGFLREVQRHLASYNRSMEERTTDGVSGEKGPLNSRASGGRLGIQAVQARLPWTLQARPLRKG | soluble
MPSEPGKNMIQHAGLGYRRDLAEDFLSLSENSPICFIEAAPENWLKMGGWARKQFDRVAERLPLALHGLSMSLGGQAPLDTDLIDGIKEMMRRYDCTFFSDHLSYCHDGGHLYDLLPLPFTEEMVHHTARRIREVQDRLGCRIAVENTSYYLHSPLAEMNEVEFLNAVAREADCGIHLDVNNIYVNAVNHGLLSPEAFLENVDAERVCYIHIAGHDVETPELLIDTHGAAVLPTVWDLLELAYAKLPTIPPTLLERDFNFPPFSELEAEVAKIADYQTRAGKECRRAA | not soluble
MTATQITGVVLAAGRSNRLGTPKQLLPYRDTTVLGATLDVARQAGFDQLILTLGGAASAVRAAMALDGTDVVVVEDVERGCAASLRVALARVHPRATGIVLMLGDQPQVAPATLRRIIDVGPATEIMVCRYADGVGHPFWFSRTVFGELARLHGDKGVWKLVHSGRHPVRELAVDGCVPLDVDTWDDYRRLLESVPS | not soluble
MGQFPRTVVHAAGTTEITTKPERVVVLDTGELDSVLSLGITPVGMTTTKGANPVPSYLADKVKDVERVGTINELNIEAIAALKPDLIIGSQLRADKLYPQLSDIAPTVFSIRPGSPWKENFLLVGEALGMEKEAEEKLNEYADRVAELKNNVPQNTEVSLVRFMPNKLRLYGNKSLIGVVLADAGLARPEKQNVDDLAVEISPENIDQAAGSVIFYTSYGKPDATGETAVVEGPAWKNLEAVAAGKAHRVNDDVWFLGLGPTGAMEIVSDLHDYLLEHHHHHH | soluble
MPIVNQSSLVPYSAEQMYQLVNDYEKYPQFLSGCIGAKTISRGNNELEAELQIQKLGISQSFSTHNKMLPNERIEMKLVNGPFRQLQGAWNFQPFDEQSCKISLYLEFEFSNPVVGMVFGKIFNELTLKMVNAFKQRAKEVYGVLEHHHHHH | soluble
MRNTLKAATLESKFPLLAVEADCIISKDADITAVFEVDLPELFTVTAAEYEAIHAAWAKAIKVLPNYTVVHKQDWFIREDYRSQTDKENLSFLSRSYEMHFNERPFLNHKCYLYLTKTTKERMRMQSSFSSLCRGFIIPKEVDKDTTAHFLDTVGQFARIVNDTGLVHLRRLVGDEITGTENKAGLVEKYFCLSMENTTALEDIELGDDGLRVGDKHVSVHTLSELDALPSKVGTDCRYERLSTDKSDCKLSFASPVGLLLSCNHLYNQYIFLDDSGENLQRFEKNARNMQSLSKYSRSNQINKEWIDLYLNDAHSFGLTSVRAHCNIIAWTDNPMEVKNMRNDVGSQIAMMECKPRHNTVDAATLYWAAIPGNGADFPAEESFYTFIEQALCFWVEETNYRSSVSPFGLKMSDRISGKPLHVDISDLPMKRGVTTNRNKFVLGGSGSGKSFFMNHLARQYYEQGTHVVLIDTGNSYQGLCSLIHQKSGGKDGIYFTYTDENPIAFNPFFTDDKVFDIEKRESIKTLILTLWKKDNEPATRSEEVALSNAVSLYIRRIKEDESIVPSFNTFYEFVKTDYRRILEEKEVREKDFDLAGFLNVLEPYYRGGEYDFLLNSDKQLDLLGKRFIVFEIDQIKDHPILFPVTTIIIMELFINKMRRLKGVRKMIIIEEAWL | not soluble
MWLLQLMQQQHSIDMMKKQGLKLEAQDLYNPNGVSLKDAVGIFGGGCTGEIISPEGLILTNHHCGYSSIQQHSSVEHDYLTDGFWATSRDQELPTPGLKFTFIERIEDITDIVNAKIAAKEITESQSFTGAFLEGLAKELYEKSDLKDKKGIVPQALPFYAGNKFYLFYKKIYPDVRMVAAPPSSVGKFGGETDNWMWPRHTGDFSMFRIYADANGEPAEYSASNTPLKTKKHLSISIKGLKEGDYAMIMGFPGRTSRYLTVSEVKERMESTNEPRIRIRGARLAVLKEVMNASDKIRIQYANKYAGSSNYWKNSIGMNKAIIDNDVLGTKAEQEAKFAEYAKAQNNTEYANVVKKIDDLVAQTAPLNYQLTCLTEVFFGAIEFGNSMLTKTREALVDKNDSLIKVRLEGLKENFKSIHNKDYDHEVDRKVAKALLPLYAEMIPANQRPAIYKVIEQKYKGDYNKFVDDMYDKSIFANQANFDKFLKKPTVKAIDEDLALQYAQSKYDQYGNLLDQLKELDKELALLHKTYIRGLGEMKLPVPSYPDANFTIRLTYGNVKPYDPKDGVHYNYYTTTKGILEKENPEDREFVVPAKLKELIEKKDYGRYALPNGDMPVCFLSTNDITGGNSGSPVLNENGELIGCAFDGNWESLSGDINFDNNLQRCINLDIRYVLFILEKLGNCGHLINEMTIVE | not soluble
MGSDKIHHHHHHMTHQAATVHALNPATPEGLEVRLARTRAEVAAAQRIRYRVFYEEMGAKPTVAMQTLEQDFDDYDKHCDHLVVLADGDVVGTYRLIRRSAAQAVGRFYTAGEFDISPFLAVEGEILELGRSCVDARWRHRGTLQALWQGLAGYMVENDIRLLFGCGSLPGTDPEILAPQLAYLRDNHMAPPALRGRALDSAEKVDFAGIDVAWDARRVLASLPPLLKGYLRLGGVIGDGAVIDRPFNTTDVLVVVNAADIAGRYVKRFSA | not soluble
MGSDKIHHHHHHMQDIKDLTAVLRSNTPIVVIETYEEYRVIELLKRVAMTLYQPLFTWSVTSGLSRVDKDMGSQKFNTEPAELLGQIKSTQQQGIYVLCDFHPFVQDAPRNVRLLKEIALEYDALKHTLVLVSHAFEIPPEIRRYCAHFRLSLPSRNQLENLIVEEIDKVRRQGLPLVADESAIARLADNLRGVTFDDARRLIHKAIVDDGAITHDDVERVNQAKFRLMDMDGVLRYEYDTSSFSDIAGLHNLKEWLKARAPELSPQSSAPPPKGILLLGVQGSGKSLAAKAVAGAWQRPLLRLDMAALYNKYIGETEKNLRQALELADLMSPCVLWVDEIEKGISGSSSDEGTSQRILGTLLTWMAERKSDVFLVATANDIQALPPELMRKGRMDEIFFVDLPDEEIRKAIFLIHCKKRGVDVTSMDLGLLSRASQGFSGAEIEQAVISAIYSAASRRQPVEQAIILEELSRTRPLSVVMREKIDSLRAWAKGRTMNAHLD | not soluble
MGSDKIHHHHHHMDDRARALLKALIERYIADGQPVGSRTLSKVFDLSPATIRNVMADLEELGLIHSPHTSAGRVPTPRGYRMFVDSLLAVRAYQFEPAHIGELLPVSEPSRAVNAAAALLSNLTQFAGVVLTPKRTQIFRQIEFIRLSDKRVLLIIVTPEGDVQNRILSAQRDYTEAELLEAGNFFNVHFSGKSFDAVRRTLSTELAQLRDDISRLMQAAVEAGAEAADDGEAVVISGERKLLDVTDIASDMDRLRKMFSLFEKKTDLLQLLDVSSRAQGVQIYIGGDSQLVPMEEVSVITAPYGVDGKVIGTLGVIGPTRMAYERVIPIVDITARLLSNALSHNQ | not soluble
MAHHHHHHMMPTQSEEQTKAQIPKSQAKIVNELIENKDTICAWCFDVLKYELKNEKFDKVPPLIQSLHNDGFKIPFFVKWMKLNDVKDMGSYNYDAYELNGCIGCLGETDIMELRYYALESSLNDTRFYPITLKDFPFLIVTITYLFNFEKCAHVYDWVIGKHGIKISFVANKRRYSSTFLPEVASQHNFDHQTTVKKLIRKANYRGEINDELLENIEVERYEGVSCSLTHVDYERVKRD | soluble
STKFPTLKRLFGEAQAAWLVKESEQAVLEIDAFCKQHHIDAQLSLKGVYYTATNHVQAGSMQPVVDELSRLGVNSWRRCKEDELHANTGSPRHLEGFHSSVAASVQPALLARGLRRVALEMGIEIFENTPMTKLDFGQPATVSTPDAQIKAKQVVLALNAWMVEHFTQFKNSIVVVSSDMVITKPLGESLRKTGWQAGTSVLDSRIFVHYYRDTPDGRLMLGKGGNQFSFNNQVDVMFNKPTRYQNLLRKSFDKLFPSLKEAEFEYSWTGGSDRSTSGFPFFGKLNEQRNVFYGFGYSGNGVAQTRMGGKILSSMVLGLDNEWTRSGLAKGPLGHFPPEPFRWIGAMTVRNAVRRKEEAEDCGQKPFIWDKWLAKLAGPAGKADKLD | not soluble
MPASSTSSPSSKEEDEKHTSADEDVTPTASPSLVKSEVVKEEENDDADRTLTMPSTSQDIQPESSPAHGRSAPSSQEITSPPTVRRVATPLEAAEQEYYYFTTDMINQAALDIEREKEKFDSLITWYKLQRDDVPALGTSSVGNSTAPSYVSEKGSTTPMSSQPSSHQSGTSSTNGAHGGLNGFSCSPFGLENNPRSNDPMQCMSSPVELDEICPTLEDFMSSAASSSTPSTSSAPQMNQNQNTHPNSINHHHQPDTSLLMLNNHHSSPLNQLSFNHQMPSTSNSNPPSNASLKRRATEEFGNDGPMKQAKIEGSENDNNPMRKLEMMANSSNFRGGNTINEVVEASKKDERTLKMEKLDVIGKSVGEEFAQQAREAQMRQMQQAAAAAGSMPPSYPSPGQYPGPMHYPGMPPMMPPGAPFSAGASYPPMGGPFPPNPYGMHPGMTPGGYPMSAPGKMPFGSPSFPQSAPSPAAMAAMQQGRMPGPPMPPHMMTPQQQQHFMQMQQAQMAHFNAQKAAAAAAAAGMSPAARASPMGASPSPHHPHPSQFPPNHPANPMYHHHIMMMRAMHAQGGQPGHPGMMPPGMMPPGMMPPGMMPPGMHPGMAGMPPMHPGMQGMPPMHPGMQGMPGMPHGPPQPPQNPALMVAGNRAGSAEAAAAQMGNPHHPMMGANMWQLTPHYPPPLPASSSSGAGTPVSR | not soluble
MPGERFSHSRCHAIAIKELQRRTENRDGTALHILPKSQRKLAIFLINMDSATKRLTDMNARLDAMGLKAERVAGVNGRELQYPIPEFSEISYMLMHGRRTSPPEIGCYLSHVACANKFMTGDADIALILEDDVVFEDDFLDAIDEAVLNGNDWDILRLTTVSNGRKFAFRALSNGRSLAVALTREKGSGAYLVNRRAGKWISKLIPMRLAYDIAFDLEYLSGLKAAFIYPLCATQDADGESQIQNNLRIYRLPRWRYFTVLPYRAYLETSRFLLRGLRFLVAKAKVAMERGKPKAVQAGRLEHHHHHH | soluble
LVSITDLQGRILYANDNFCAVSRYGREELVGQDHRIVNSGYHGKAYIRDMWRTISRGNIWQGEFCNRRKDGTRYWVDSTIVPLMDNAGKPRQYISIRRDITAQKEAEAQLARLKQAMDANSEMILLTDRAGRIIYANPALCRFSGMAEGELLGQSPSILDSPLADQETLAAMQEALQAGQPWSGRLLNRRRTGPAPHDAEDYWAEISTTPIHTDGNGLVGYVQIQHD | soluble
MGSDKIHHHHHHMDGINTLRYSDLFLAMYFDGGKSCLHRNHSHVLVYVYSGEMVIDEKGQITRLHKGECAFIRKDFSVQMTKQAWNGEQFKAIFLMFTMKFLRDFYSKLDRNTLPKDAKRDQVSLYKLPSNRPDIVSLFESMTPYFNSKIQPTDELLQLKMVEGVYVLLNTDKNLYASIFDFTDPWKIDILEFMERNYMNDISMEEIANYTGRSLSTFKRDFKKCSALSPREWLIRRRLEAAHGLIRKGGRKVSEICFEVGFKNLSHFSKIYKIAYGVPPTEDI | not soluble
